US8524227B2, “Anti-IL-TIF antibodies” (ZymoGenetics, Inc., priority 2002, dated 2013)

What was measured:
[1] = biological target: T1, CRF2-4/zcytor11 heterodimeric receptor (Homo sapiens, UniProt Q08334+Q8N6P7, R518G); assay: Alamar Blue proliferation assay, BaF3/CRF2-4/zcytor11 cells; type: cell-based; conditions: 50 ng/ml IL-TIF-CEE
T1 construct: BaF3 cells expressing the full-length CFR2-4 receptor were constructed; expressed in transfected cells
T1 sequence (Q8N6P7 16-574 R518G): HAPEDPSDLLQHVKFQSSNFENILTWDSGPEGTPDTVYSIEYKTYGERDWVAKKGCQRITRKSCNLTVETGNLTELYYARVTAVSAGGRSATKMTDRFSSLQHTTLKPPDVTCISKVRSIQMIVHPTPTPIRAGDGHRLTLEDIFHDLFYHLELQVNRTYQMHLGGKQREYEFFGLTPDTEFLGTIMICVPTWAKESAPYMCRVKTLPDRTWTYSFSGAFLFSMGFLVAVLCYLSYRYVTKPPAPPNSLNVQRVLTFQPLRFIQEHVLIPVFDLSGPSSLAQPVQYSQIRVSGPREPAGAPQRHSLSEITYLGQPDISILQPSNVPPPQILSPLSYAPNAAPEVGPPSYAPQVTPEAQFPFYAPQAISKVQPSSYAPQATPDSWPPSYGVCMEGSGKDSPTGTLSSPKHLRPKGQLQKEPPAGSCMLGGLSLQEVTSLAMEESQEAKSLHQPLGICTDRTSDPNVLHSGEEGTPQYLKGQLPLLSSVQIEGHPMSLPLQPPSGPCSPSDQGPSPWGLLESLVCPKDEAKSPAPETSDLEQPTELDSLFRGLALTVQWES
T1 sequence (Q08334 20-325): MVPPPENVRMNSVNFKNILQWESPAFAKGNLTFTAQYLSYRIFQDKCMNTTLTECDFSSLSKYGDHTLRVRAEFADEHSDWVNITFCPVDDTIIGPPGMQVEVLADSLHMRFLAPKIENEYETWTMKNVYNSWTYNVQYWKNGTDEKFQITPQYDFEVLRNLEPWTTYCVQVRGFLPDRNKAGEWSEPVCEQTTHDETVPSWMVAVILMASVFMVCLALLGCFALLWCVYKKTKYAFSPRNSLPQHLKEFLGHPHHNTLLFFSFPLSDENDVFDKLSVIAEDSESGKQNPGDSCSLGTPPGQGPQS
Protocol: BaF3/CRF2-4/zcytor11 cells were spun down and washed in the complete media, described in Example 21A above, but without mIL-3 (hereinafter referred to as “mIL-3 free media”). The cells were spun and washed 3 times to ensure the removal of the mIL-3 Cells were then counted in a hemacytometer. Cells were plated in a 96-well format at 5000 cells per well in a volume of 100 μl per well using the mIL-3 free media.
Proliferation of the BaF3/CRF2-4/zcytor11 cells was assessed using IL-TIF-CEE protein diluted with mIL-3 free media to 50, 10, 2, 1, 0.5, 0.25, 0.13, 0.06 ng/ml concentrations. 100 μl of the diluted protein was added to the BaF3/CRF2-4/zcytor11 cells. The total assay volume is 200 μl. […] Alamar Blue gives a fluourometric readout based on number of live cells, and is thus a direct measurement of cell proliferation in comparison to a negative control. […] Plates were read on the Finax™ plate reader (Molecular Devices Sunnyvale, Calif.) using the SoftMax™ Pro program, at wavelengths 544 (Excitation) and 590 (Emmission). […] The response, as measured, was approximately 15-fold over background at the high end of 50 ng/ml down to a 2-fold induction at the low end of 0.06 ng/ml. […]
IL-TIF protein (SEQ ID NO:3) was diluted to 200 pg/ml in mIL-3 free media. […] Plates were read on the Wallac Victor 2 1420 Multilabel Counter (Wallac, Turku, Finland) at wavelengths 530 (Excitation) and 590 (Emmssion). […]

[2] = system: BaF3 wild type cells; assay: Alamar Blue proliferation assay, BaF3 wild type cells; type: cell-based, murine
[3] = system: BaF3/CRF2-4 cells; assay: Alamar Blue proliferation assay, BaF3/CRF2-4 cells; type: cell-based, murine

B1: IL-TIF-CEE: IL-TIF polypeptide containing C-terminal GluGlu (EE) tag, purified from BHK 570 cells (protein)
chain: APISSHCRLDKSNFQQPYITNRTFMLAKEASLADNNTDVRLIGEKLFHGVSMSERCYLMKQVLNFTLEEVLFPQSDRFQPYMQEVVPFLARLSNRLSTCHIEGDDLHIQRNVQKLKDTVKKLGESGEIKAIGELDLLFMSLRNACIEYMPME
proliferative response over background [1]: approximately 15 fold
proliferation in response to IL-TIF-CEE [2]: did not proliferate
proliferation in response to IL-TIF-CEE [3]: did not proliferate
